B1: SlGA3ox1 probe P5 (dsDNA)
DNA 1: TTAACAAAGACAAATTAGTTGATTGGTTAAAGACAATCAATATGT
DNA 2: ACATATTGATTGTCTTTAACCAATCAACTAATTTGTCTTTGTTAA
B2: SlGA3ox2 probe P4 (dsDNA)
DNA 1: CTATAATTGAATTGAATTCAGTTAACTGTCGAAATTGGAATGGTA
DNA 2: TACCATTCCAATTTCGACAGTTAACTGAATTCAATTCAATTATAG
B3: SlGA3ox2 probe P3 (dsDNA)
DNA 1: CCCATACAACTTTGCGATGTTAATGGTTATAACTATAAAGGGAGA
DNA 2: TCTCCCTTTATAGTTATAACCATTAACATCGCAAAGTTGTATGGG
B4: SlGA3ox2 probe P2 (dsDNA)
DNA 1: CAATTATTTGTCAATATTTGGTTAAATACTTGTTTAATAGTATAC
DNA 2: GTATACTATTAAACAAGTATTTAACCAAATATTGACAAATAATTG
B5: SlGA3ox2 probe P1 (dsDNA)
DNA 1: GCACTTAAGATCATAATTAATGATTTCAGTTACCGCAATAAAATG
DNA 2: CATTTTATTGCGGTAACTGAAATCATTAATTATGATCTTAAGTGC

Biological target: SlGAMYB2-GST (Solanum lycopersicum, UniProt A0A3Q7H2U6 1-504)
Test: EMSA

Binder	binding result
B1	no binding
B2	no binding
B3	binds
B4	binds
B5	no binding
